The target of the experiment is T1, human β1 adrenergic receptor (Homo sapiens, UniProt P08588).
T1 construct: also called β1-AR; ß1-AR; source: HEK cells, stably transfected (HEK-β1), on cells
Kind of experiment: flow cytometry on cells; HEK and HEK-β1 cells incubated with mAb 17.2 (500 nM) 1 h at room temperature in supplemented DMEM; Cy3-conjugated goat anti-mouse IgG; propidium iodide to exclude dead cells. The settings on record: one partner purified. (In general: Flow cytometry measures light scatter and fluorescence of single cells or particles in a stream.)

T1 sequence (P08588 whole entry): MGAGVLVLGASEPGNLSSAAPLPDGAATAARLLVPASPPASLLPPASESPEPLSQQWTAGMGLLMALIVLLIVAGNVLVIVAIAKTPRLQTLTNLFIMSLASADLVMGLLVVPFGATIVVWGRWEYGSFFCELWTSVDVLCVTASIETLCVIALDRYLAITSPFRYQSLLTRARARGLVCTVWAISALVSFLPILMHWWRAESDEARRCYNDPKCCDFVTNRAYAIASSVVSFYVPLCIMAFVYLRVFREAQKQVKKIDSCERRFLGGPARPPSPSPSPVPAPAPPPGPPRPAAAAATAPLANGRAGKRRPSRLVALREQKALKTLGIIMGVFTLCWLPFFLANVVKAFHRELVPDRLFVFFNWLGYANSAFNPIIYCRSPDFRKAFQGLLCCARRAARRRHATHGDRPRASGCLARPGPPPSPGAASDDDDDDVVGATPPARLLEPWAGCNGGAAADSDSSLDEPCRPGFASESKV

B1: murine monoclonal antibody 17.2 (antibody, V domains shown)
VH: EVQLEESGGRLVQPKGSLKLSCAASGFSFNTNAMNWVRQAPGKGLEWVARIRSKINNYSTYYADSVKDRFTISRDDSQSMLYLQMNNLKTEDTAMYYCVRGTTYWGQGTLVTVSA
VL: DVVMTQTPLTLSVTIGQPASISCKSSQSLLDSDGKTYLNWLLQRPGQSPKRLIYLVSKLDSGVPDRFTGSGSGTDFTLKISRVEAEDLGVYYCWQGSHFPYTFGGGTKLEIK
notes: variable and CH1 domains as the heavy chain of m1 (PDB 3SGE, 3SGD); the rest is the mouse IgG1 constant region, not in the entries; as the light chain of m1 (kappa; PDB 3SGE, 3SGD); Whole IgG1, kappa; also called mAb 17.2; source: purified from ascitic fluid (40% ammonium sulphate, DEAE-Sephacel)
Take B1: the binding result is “binds”.

(Values after PMC3206007, “Crystal Structure of the Complex mAb 17.2 and the C-Terminal Region of Trypanosoma cruzi P2β Protein: Implications in Cross-Reactivity” (PLoS Neglected Tropical Diseases, 2011).)
